We go through 3 molecules from patent US7125850B2, “Methods of identifying inhibitors of GADD45 polypeptide activity, and inhibitors of such activity” (The United States of America as represented by the …, priority 1999, dated 2006).

In one assay the test system is RKO cells. Nature of the assay: Flow cytometry cell cycle analysis of RKO cells after base-damaging agent. The class given is cell-based, human. As to conditions: parental RKO cells, 25 μg/ml. On the procedure: Using flow cytometry analysis, cell cycle distributions of unsynchronized cell populations were performed (for flow cytometry analysis, cells were harvested with 3.5 mM EDTA-PBS buffer, fixed with 70% ethanol for at least 1 hr at 4° C., treated with 20 μg/ml RNase A for 30 min, stained with 60 μg/ml of propidium iodide (PI) for DNA content, and analyzed for cell cycle status with a FACScan cell sorter (Becton Dickinson). At least 10,000 cells were collected. The cell cycle profiles were calculated using the CellQuest and ModFit Lt software. Experiments were repeated at least twice.) The parental human RKO colon carcinoma cells and three isogenic RKO-derived clones stably expressing antisense GADD45 mRNA (discussed above) were analyzed.
Cells were treated with base-damaging agents: either 6.3 Gy of γ-radiation; 5 J/m^2 of UV; or, 25 μg/ml of the base-damaging alkylating agent MMS. These doses for MMS and UV radiation were selected because they were not toxic to these cells in a short-term growth assay. […] The cell cycle status of the cells was then analyzed and quantitated by flow cytometric analysis profile (as described above). […] IR caused a significant accumulation in G2/M with concomitant reductions in G1 and S in all four cell lines.
(In general: In flow cytometry, cells or beads pass a laser one at a time.)

A further assay concerns the target Cdc2 (Homo sapiens, UniProt P06493). As to the kind of experiment: Co-immunoprecipitation of Myc-tagged GADD45 with Cdc2 antibody in transfected RKO cells. The class given is cell-based. Details: endogenous in cells; host or cells: RKO (human colon carcinoma). An excerpt:
In order to determine if GADD45 associates with Cdc2 in vivo, RKO cells were transfected with Myc-epitope-tagged expression vectors. To construct the Myc-tag-GADD45 expression vector, internal GADD45 primers were designed to contain an in-frame 5′ NdeI site and were used to amplify the desired regions from a human GADD45 cDNA construct. PCR products were cloned into the pcrII vector using the TA Kit (Invitrogen, Carlsbad, Calif.) and sequenced prior to subcloning into XhoI/XbaI cut pCS2MT. This allowed expression of the GADD45 constructs tagged with 6 copies of the Myc epitope recognized by the monoclonal 9E10 antibody at the amino-terminus (Rupp (1994) Genes Dev. 8:1311–1323; Turner (1994) Genes Dev. 8:1434–1447).
For mammalian cell transfection, 10^6 RKO cells were seeded onto 100 mm plates the day before transfection. […]
Lysates from cells expressing Myc-tag-GADD45 fusion protein or unfused Myc-tag were immunoprecipitated with antibodies to c-myc and Cdc2 (both from Santa Cruz Biotech.). […] Following immunoblot analysis, the Myc-tagged GADD45 protein was detected in both the cell lysate and after immunoprecipitation with anti-Myc antibody. […] After immunoprecipitation with Cdc2 antibody, Myc-tagged GADD45 was also detected. No GADD45 was detected with (i.e., was co-immunoprecipitated by) the control antibodies. […]

For the next assay, the target named is T1, cellular Cdc2 (Homo sapiens, UniProt P06493).
T1 construct: GST-GADD45 fusion protein were incubated with one mg of RKO cellular protein; endogenous in cells; host or cells: RKO (human colon carcinoma)
As to the kind of experiment: GST pull-down from RKO cell lysate, immunoblot for Cdc2. The class given is binding. As to conditions: 100 ng protein, 1 mg RKO cellular protein. An excerpt:
For these experiments, a recombinant glutathione-S-transferase (GST)/GADD45 fusion protein was constructed. The GADD45 insert was PCR amplified from pHul45B2 using the following primers: (SEQ ID NO:3) 5′[…] 3′ and (SEQ ID NO:4) 5′[…] 3′. Products were cloned into a pcrII vector using the TA cloning kit (Invitrogen, San Diego, Calif.). A representative clone was confirmed by sequencing. The selected insert was removed by XhoI and NotI digestion, gel purified using the Wizard DNA Purification Kit (Promega, Madison, Wis.), and ligated into the XhoI/ NotI digested pGEX4T vector (Pharmacia, Piscataway, N.J.). GST-GADD45 fusion protein induction was prepared from freshly transformed BL21 bacterial cells (Novagen). 150 ml of overnight culture was diluted into 1L of LB with ampicillin and grown at 37° C. to late growth phase (OD600 was approximately 0.8). […]
To detect binding of cellular Cdc2 to GST-tagged GADD45, 100 ng of GST or GST-GADD45 fusion protein were incubated with one mg of RKO cellular protein for 4 hr at […]. […] Antibody was detected by a chemiluminescence system in accordance with the instructions of the manufacturer (Amersham, Buckinghamshire, England)
(§1) GST-GADD45 fusion protein or GST alone, which were linked to Sepharose beads, were incubated with cellular lysates, isolated, and analyzed by immunoblotting, as described above.
For orientation: A western blot detects proteins with antibodies after separation by electrophoresis.

For the next assay, the target named is T2, cyclin B1 (Homo sapiens, UniProt P14635).
T2 construct: endogenous in cells; host or cells: RKO (human colon carcinoma)
As to the kind of experiment: GST pull-down from RKO cell lysate, immunoblot for cyclin B1. It counts as binding. As to conditions: 100 ng protein, 1 mg RKO cellular protein. On the procedure:
To detect binding of cellular Cdc2 to GST-tagged GADD45, 100 ng of GST or GST-GADD45 fusion protein were incubated with one mg of RKO cellular protein for 4 hr at […]. Complexes were then washed three times with lysis buffer and loaded onto a 12% SDS-PAGE gel. Following electrophoresis, the proteins were electrophoretically transferred to Immobin membranes (Millipore, Bedford, Mass.). The membranes were blocked for 30 min in 5% nonfat milk and then incubated with anti-Cdc2 (Santa Cruz Biotechnology, Santa Cruz, Calif.) and anti-cyclin B1 (Pharmingen, San Diego, Calif.) monoclonal mouse antibodies. Antibody was detected by a chemiluminescence system in accordance with the instructions of the manufacturer (Amersham, Buckinghamshire, England)
as §1

The target of the next assay is T3, Cdk2 (Homo sapiens, UniProt P24941).
T3 construct: GST-GADD45 fusion protein were incubated with one mg of RKO cellular protein; endogenous in cells; host or cells: RKO (human colon carcinoma)
As to the kind of experiment: GST pull-down from RKO cell lysate, immunoblot for Cdk2. The class given is binding.

T1 sequence (P06493 whole entry, the tested form may be a part): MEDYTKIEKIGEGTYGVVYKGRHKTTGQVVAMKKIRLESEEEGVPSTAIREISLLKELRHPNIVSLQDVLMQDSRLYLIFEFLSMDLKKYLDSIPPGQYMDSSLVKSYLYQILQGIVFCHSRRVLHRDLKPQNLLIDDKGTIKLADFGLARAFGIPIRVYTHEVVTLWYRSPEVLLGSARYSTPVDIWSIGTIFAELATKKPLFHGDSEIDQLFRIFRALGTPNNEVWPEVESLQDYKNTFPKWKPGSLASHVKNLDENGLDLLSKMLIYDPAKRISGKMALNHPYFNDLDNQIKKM
Sequence of Cdc2 (P06493 whole entry): as the sequence (P06493 whole entry, the tested form may be a part) above
T2 sequence (P14635 whole entry): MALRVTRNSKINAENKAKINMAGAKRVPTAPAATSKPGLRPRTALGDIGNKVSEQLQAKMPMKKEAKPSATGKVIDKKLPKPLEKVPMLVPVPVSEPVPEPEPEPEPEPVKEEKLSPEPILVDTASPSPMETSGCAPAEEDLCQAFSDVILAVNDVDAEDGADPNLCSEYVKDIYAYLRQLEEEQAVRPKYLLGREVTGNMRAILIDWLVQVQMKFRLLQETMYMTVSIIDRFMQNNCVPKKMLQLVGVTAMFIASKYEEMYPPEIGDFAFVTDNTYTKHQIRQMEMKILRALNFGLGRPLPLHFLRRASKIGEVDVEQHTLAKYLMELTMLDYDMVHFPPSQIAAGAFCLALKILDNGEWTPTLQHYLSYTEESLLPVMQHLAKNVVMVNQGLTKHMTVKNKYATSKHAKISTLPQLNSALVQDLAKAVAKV

Take `COS(C)(=O)=O` [MMS, methyl methanesulfonate]: the cell cycle accumulation result in the assay with RKO cells is “accumulated in S and G2/M”.

B1: Myc-tagged GADD45: GADD45 tagged with 6 copies of the Myc epitope, expressed in RKO cells (protein)
chain: MTLEEFSAGEQKTERMDKVGDALEEVLSKALSQRTITVGVYEAAKLLNVDPDNVVLCLLAADEDDDRDVALQIHFTLIQAFCCENDINILRVSNPGRLAELLLLETDAGPAASEGAEQPPDLHCVLVTNPHSSQWKDPALSQLICFCRESRYMDQWVPVINLPER
modifications: left off: small tags and cut ends
For B1, in the assay with Cdc2, the “detection after immunoprecipitation with Cdc2 antibody” value is “also detected”.

B2: GST-GADD45: recombinant glutathione-S-transferase (GST)/GADD45 fusion protein on Sepharose beads (protein)
chain: TLEEFSAGEQKTERMDKVGDALEEVLSKALSQRTITVGVYEAAKLLNVDPDNVVLCLLAADEDDDRDVALQIHFTLIQAFCCENDINILRVSNPGRLAELLLLETDAGPAASEGAEQPPDLHCVLVTNPHSSQWKDPALSQLICFCRESRYMDQWVPVINLPER
modifications: left off: a dimerising Fc or GST
notes: recombinant glutathione-S-transferase (GST)/GADD45 fusion protein on Sepharose beads
Regarding B2, the “association with cellular Cdc2” value with cellular Cdc2 is “found to associate”. In the assay with cyclin B1, the “association with cyclin B1” value is recorded as “did not associate”. Moreover, the “association with Cdk2” value with Cdk2 is given as “No association”.
